Six molecules from article PMC7846482 (The Journal of Biological Chemistry, 2021) can be followed below.

What all share (conditions): both partners purified
The target in test [1] is T1, SARS-CoV-2 spike receptor-binding domain (RBD) glycoprotein from the mammalian expression system (SARS-CoV-2 Wuhan-Hu-1, UniProt P0DTC2). The experiment in a line: western blotting.
Test [2] addresses T1, SARS-CoV-2 spike receptor-binding …. The experiment in a line: co-IP.
Test [3] shares this target. The experiment in a line: ELISA. On the technique in general: In an ELISA, binding on a coated surface is turned into a signal by an enzyme label.

B1: mouse anti-SARS-CoV-2 spike monoclonal antibody clone R31 (antibody, V domains shown)
VH: QVQLQQSGAELVRPGTSVKISCKASYTFTNYWLAWVKQRPGHGLEWIGDIYPGGAYTNFNEKFKGKATLTADTSSSTAYMQLSSLTSEDSAVYFCARDGHYGYAMDYWGQGTSVTVSS
VL: DIVMTQAAFSNPVTLGTSASISCRSSKSLLHSNGITYLYWYLQKPGQSPQLLIYQMSDLASGVPDRFSSSGSGTDFTLRISRVEAEDVGVYYCAQNLELPRTFGGGIKLEIK
B1: the binding result in test [1] is “binds”.

B2: mouse anti-SARS-CoV-2 spike monoclonal antibody clone R52 (antibody, V domains shown)
VH: QIQLVQSGPELKKPGETVKISCKASGYTFTNYGMNWVKQAPGNGLRWMGWINTYTREPSYAADFKGRFAFSLETSARAAYLQINNLKNEDTATYFCARNGAMDYWGQGTSVTVSS
VL: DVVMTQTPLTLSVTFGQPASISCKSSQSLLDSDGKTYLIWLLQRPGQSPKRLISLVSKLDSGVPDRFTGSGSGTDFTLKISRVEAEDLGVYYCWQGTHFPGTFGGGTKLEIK
On to B2, for which the binding result in test [1] is reported as “binds”.

B3: mouse anti-SARS-CoV-2 spike monoclonal antibody clone R22 (antibody, V domains shown)
VH: EVQLQQSGPELVRPGASVKISCKTSGYTFTEYIIHWVKQSHGKSLEWIGGIDPNNGDTSYNQKFKGKASLTVDKSSSTAYMELRSLTSDDSAVYYCARLDFDYWGQGTTLTVSS
VL: DIVMTQSHKFMSTSVGDRVSITCKASQDVRTAVAWYQQKPGQSPKLLIYWASTRYTGVPDRFTGSGSGTDYTLTISSVQAEDLALYYCQQHDSTPLTFGAGTKLELK
On to B3, for which the binding result in test [1] is on record as “binds”.

B4: mouse anti-SARS-CoV-2 spike monoclonal antibody clone S1D7 (antibody, V domains shown)
VH: QVQLQQSGAELVKPGASVKLSCKASGYTFTSYYIYWMKQRPGQGLEWIGEINPNNGGTNFNEKFKSKATLTVDKSSSTAYMQLSSLTSEDSAVYYCTRGHSDYWGQGTTLTVSS
VL: DIVLTQSPASLAVSLGQRATISCRASESVEYYGTGLMQWYQQKPGQPPKLLIYAASNVESGVPARFSGSGSGTDFSLNIHPVEEDDIAMYFCQQTRKVPYTFGGGTKLEIK
With B4, the binding result in test [2] was “binds”.

B5: mouse anti-SARS-CoV-2 spike monoclonal antibody clone S3D8 (antibody, V domains shown)
VH: QVQLQQSGAELVKPGASVKLSCKASGYTFTSYYMYWMKQRPGQGLEWIGEINPSNGGTNFNEKFKSKATLTVDKSSSTAYMQLSSLTSEDSAVYYCTIFITRDAMDYWGQGTSVTVSS
VL: QIVLTQSPAIMSASPGEKVTLTCSASSSVSSSYLFWYQQKPGSSPKLWIYTTSNLASGVPARFSGSGSGTSYSLTISSMEAEDAASYFCHQWSSYPPTFGAGTKLELK
In the case of B5, in test [2], the binding result was “binds”.

B6: mouse anti-SARS-CoV-2 spike monoclonal antibody clone R15 (antibody, V domains shown)
VH: QIQLVQSGPELKKPGETVKISCKASGYTFTKYGINWVKQAPGKDLKWMGWINTYTGEPAYGDDFKGRFAFSLETSTNTAYLQINNFKNEDTATYFCARNGAMDYWGQGTSVTVSS
VL: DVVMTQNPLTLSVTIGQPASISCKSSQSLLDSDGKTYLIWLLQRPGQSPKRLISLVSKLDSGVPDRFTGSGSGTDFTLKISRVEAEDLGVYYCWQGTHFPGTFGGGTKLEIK
For B6, the binding result in test [3] is listed as “binds”.
